Data published in patent US20120178908A1 (Novo Nordisk, published 2012).
Where a chain is given by its changes, count along the chain named. Numbers in names are those of the source. Blank lines part the entries; values can stand above or below the binder they belong to.

What was measured:
hTLT-1 ECD-HPC4 R117A = target: T1, hTLT-1 ECD-HPC4 R117A (human, UniProt Q86YW5 16-162); assay: SPR (ProteOn), mAb captured by anti-hFc, 100 nM mutant, signal 10 s after injection normalised to captured mAb
T1 construct: As m27; also called Ala mutant 32
T1 chain: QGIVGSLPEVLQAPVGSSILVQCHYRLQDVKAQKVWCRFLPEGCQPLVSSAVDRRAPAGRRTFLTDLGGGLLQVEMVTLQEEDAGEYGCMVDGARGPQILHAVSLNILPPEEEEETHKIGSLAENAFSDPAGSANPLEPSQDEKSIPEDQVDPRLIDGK
Procedure: (§1) Each anti-body was diluted in 10 mM sodium acetate pH 5.0 to a concentration of […], and was immobilized to an individual flow cell at 30 μl/min for 240s. The antibodies were immobilized to flow cells A1-A6 (horizontal direction). After immobilization, the active sites on the flow cell were blocked with 1 M ethanolamine. The final immobilization level of capture antibody typically ranged from approximately 9,000 to 10,000 RU in one experiment. Capture of the anti-TLT1 antibodies 0197-0000-0023, 0197-0000-0051, 0197-0000-0061 and 0197-0000-0062 was conducted by diluting to […] into HBS-EP buffer (10 mM HEPES, 150 mM NaCl, 3 mM EDTA, 0.05% surfactant P20, pH 7.4) and injected at 30 μl/min for 60s in vertical direction, creating interspot reference points with only anti-human Fc antibodies. The final capture level of test antibodies typically ranged from approximately 200 to 300 RU in one experiment. Binding of wt or Ala mutant hTLT-1 ECD-HPC4 protein was conducted by injecting over parallel flow cells in horizontal direction to allow for comparative analyses of binding to different captured anti-TLT1 antibodies relative to binding to the interspot references. Each hTLT-1 ECD-HPC4 protein was diluted to 100 nM, based on the calculated average Mw, into HBS-EP buffer and injected at 30 μl/min for 240s. The GLM chip was regenerated after each injection cycle of analyte via one 18 s injection of 1 M Formic acid followed by a 18s injection of 50 mM NaOH at 100 μl/min. This regeneration step removed the anti-TLT1 antibody and any bound TLT1 from the immobilized capture antibody surface, and allowed for the subsequent binding of the next test sample pair.
(§2) Data analysis was performed using the ProteOn Manager™ Software. No significant non-specific binding to the interspot control surfaces was observed. Binding curves were processed by double referencing (subtraction of interspot control surface signals as well as blank buffer injections over captured anti-TLT1 antibodies). This allowed correction for instrument noise, bulk shift and drift during sample injections. Binding signal at 10 s after stop of analyte injection was normalized to level of captured anti-TLT1 antibody and presented as binding relative to wt hTLT-1 ECD-HPC4 protein.

hTLT-1 ECD-HPC4 M91A = target: T2, hTLT-1 ECD-HPC4 M91A (human, UniProt Q86YW5 16-162); assay: as above
T2 construct: As m27; also called Ala mutant 24
T2 chain: T1 chain with M76A, A102R
Procedure: as §1, §2

hTLT-1 ECD-HPC4 S119A = target: T3, hTLT-1 ECD-HPC4 S119A (human, UniProt Q86YW5 16-162); assay: as above
T3 construct: As m27; also called Ala mutant 33
T3 chain: T1 chain with A102R, S104A
Procedure: as §1, §2

hTLT-1 ECD-HPC4 F54A = target: T4, hTLT-1 ECD-HPC4 F54A (human, UniProt Q86YW5 16-162); assay: as above
T4 construct: As m27; also called Ala mutant 12
T4 chain: T1 chain with F39A, A102R
Procedure: as §1, §2

[1] = target: T5, TLT1 (human TLT-1, reagent of the SPR studies, source NN) (human, UniProt Q86YW5 16-162, limits assumed); assay: SPR (Biacore), mAb immobilised directly on CM5, TLT1 as analyte
T5 sequence: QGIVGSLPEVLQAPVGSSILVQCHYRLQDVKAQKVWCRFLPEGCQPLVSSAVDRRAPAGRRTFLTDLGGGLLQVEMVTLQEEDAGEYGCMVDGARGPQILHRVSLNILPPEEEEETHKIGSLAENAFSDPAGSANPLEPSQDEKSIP
Procedure: The mAbs of interest were either immobilized directly to a CM5 chip or by capture via a human Fc capture mAb immobilized to a CM5 chip.
Direct capture: The TLT-1 mAbs were immobilised to a level of approx 500-1000 RU on a CM5 chip (50 μg/ml diluted in Na-acetate, pH 4.0) using the standard procedure recommended by the supplier. Two-fold dilutions of TLT1 from 200 nM to 0.2 nM were tested for binding to the mABs. Running and dilution buffer: 10 mM HEPES, 150 mM, 0.005% p20, pH 7.4. Regeneration was obtained by 10 mM Glycine, pH 1.7.

hTLT-1 ECD-HPC4 H116A = target: T6, hTLT-1 ECD-HPC4 H116A (human, UniProt Q86YW5 16-162); assay: SPR (ProteOn), mAb captured by anti-hFc, 100 nM mutant, signal 10 s after injection normalised to captured mAb
T6 construct: As m27; also called Ala mutant 31
T6 chain: T1 chain with H101A, A102R
Procedure: as §1, §2

hTLT-1 ECD-HPC4 L42A = target: T7, hTLT-1 ECD-HPC4 L42A (human, UniProt Q86YW5 16-162); assay: as above
T7 construct: As m27; also called Ala mutant 8
T7 chain: T1 chain with L27A, A102R
Procedure: as §1, §2

hTLT-1 ECD-HPC4 Q43A = target: T8, hTLT-1 ECD-HPC4 Q43A (human, UniProt Q86YW5 16-162); assay: as above
T8 construct: As m27; also called Ala mutant 9
T8 chain: T1 chain with Q28A, A102R
Procedure: as §1, §2

hTLT-1 ECD-HPC4 R41A = target: T9, hTLT-1 ECD-HPC4 R41A (human, UniProt Q86YW5 16-162); assay: as above
T9 construct: As m27; also called Ala mutant 7
T9 chain: T1 chain with R26A, A102R
Procedure: as §1, §2

hTLT-1 ECD-HPC4 R110A = target: T10, hTLT-1 ECD-HPC4 R110A (human, UniProt Q86YW5 16-162); assay: as above
T10 construct: As m27; also called Ala mutant 30
T10 chain: T1 chain with R95A, A102R
Procedure: as §1, §2

hTLT-1 ECD-HPC4 K46A = target: T11, hTLT-1 ECD-HPC4 K46A (human, UniProt Q86YW5 16-162); assay: as above
T11 construct: As m27; also called Ala mutant 10
T11 chain: T1 chain with K31A, A102R
Procedure: as §1, §2

binding relative to wt hTLT-1 ECD-HPC4 (hTLT-1 ECD-HPC4 R117A): < 0.2 fraction of wt binding
binding relative to wt hTLT-1 ECD-HPC4 (hTLT-1 ECD-HPC4 M91A): < 0.2 fraction of wt binding
binding relative to wt hTLT-1 ECD-HPC4 (hTLT-1 ECD-HPC4 S119A): < 0.6 fraction of wt binding
binding relative to wt hTLT-1 ECD-HPC4 (hTLT-1 ECD-HPC4 F54A): < 0.4 fraction of wt binding
Kd [1]: 19.3 nM
koff [1]: 0.00472 s⁻¹
kon [1]: 245000 M⁻¹ s⁻¹
B1: mAb 0051 HC2; LC2 (antibody, V domains shown)
VH: QVQLEQSGAELVRPGVSVKISCKGSGYTFTDYSMHWVKQSHAKSLEWIGVISTYYGDVRYNQKFKGKATMTVDKSSSTAYMALARLTSEDSAIYYCARAPMITTGAWFAYWGQGTLVTVSA
VL: SIVMTQTPKFLLVSAGDRVTITCKASQSVSNDVAWYQQKPGQSPKLLINYASSRYTGIPDRFTGSGYGTDFTFTISTVQAEDLAVYFCQQDYSSPYTFGGGTKLEIER
notes: also called 0197-0000-0051

binding relative to wt hTLT-1 ECD-HPC4 (hTLT-1 ECD-HPC4 H116A): < 0.6 fraction of wt binding
binding relative to wt hTLT-1 ECD-HPC4 (hTLT-1 ECD-HPC4 M91A): < 0.4 fraction of wt binding
binding relative to wt hTLT-1 ECD-HPC4 (hTLT-1 ECD-HPC4 L42A): < 0.6 fraction of wt binding
binding relative to wt hTLT-1 ECD-HPC4 (hTLT-1 ECD-HPC4 F54A): < 0.6 fraction of wt binding
binding relative to wt hTLT-1 ECD-HPC4 (hTLT-1 ECD-HPC4 Q43A): < 0.4 fraction of wt binding
binding relative to wt hTLT-1 ECD-HPC4 (hTLT-1 ECD-HPC4 R41A): < 0.2 fraction of wt binding
binding relative to wt hTLT-1 ECD-HPC4 (hTLT-1 ECD-HPC4 R110A): < 0.2 fraction of wt binding
Kd [1]: 4.12 nM
koff [1]: 0.00134 s⁻¹
kon [1]: 326000 M⁻¹ s⁻¹
B2: mAb 0062 HC2; LC2 (antibody, V domains shown)
VH: QVQLQQSGAEPMKPGASVKISCKATGYTFSSHWIEWIKQRPGHGLEWIGEILPGSGNTNYNEKFKGKATFTADTSSNTAYMQLSSLTSEDSAVYYCARGYYGLNYDWYFDVWGAGTTVTVSS
VL: DIQMTQTTSSLSASLGDRVTISCRASQDISNYLNWYQQKPDGTVKLLIFYTSRLHSGVPSRFSGSGSGTDYSLTISNLEPEDIATYYCQQDTKLPYTFGGGTKLEMKR
notes: also called 0197-0000-0062; 0052HC.C91Y + 0052LC

binding relative to wt hTLT-1 ECD-HPC4 (hTLT-1 ECD-HPC4 K46A): < 0.2 fraction of wt binding
binding relative to wt hTLT-1 ECD-HPC4 (hTLT-1 ECD-HPC4 M91A): < 0.4 fraction of wt binding
binding relative to wt hTLT-1 ECD-HPC4 (hTLT-1 ECD-HPC4 L42A): < 0.2 fraction of wt binding
binding relative to wt hTLT-1 ECD-HPC4 (hTLT-1 ECD-HPC4 Q43A): < 0.2 fraction of wt binding
binding relative to wt hTLT-1 ECD-HPC4 (hTLT-1 ECD-HPC4 R110A): < 0.2 fraction of wt binding
Kd [1]: 4.36 nM
koff [1]: 0.00125 s⁻¹
kon [1]: 287000 M⁻¹ s⁻¹
B3: mAb 0023 HC2; LC2 (antibody, V domains shown)
VH: EVRLVESGGGLVQPGGSLKLSCATSGFTFSDYFMYWIRQTPEKRLEWVAYISNGGDSSSYPDTVKGRFTISRDNAKNTLYLQMSRLKSEDTAMYYCATNKNWDDYYDMDYWGQGTSVTVSS
VL: DIVVSQSPSSLAVSAGEKVTMSCKSSQSLLNSRTRKNYLAWYQQKPGQSPKLLIYWASTRESGVPDRFTGSGSGTDFTLTISSVQAEDLAVYYCKQSYNLLTFGAGTKLELKR
notes: also called 0197-0000-0023
